Assay results taken from patent publication US20160108110A1 (Novartis, published 2016).

Columns and labels:
[1] = target: T1, Human ANGPTL3(17-460)-FLAG-His-Avi (human, UniProt Q9Y5C1 17-460, biotin on the C-terminal Avi tag); experiment: direct ELISA on streptavidin-coated MSD plate: biotinylated antigen immobilised at 1 nM, antibody at 1 nM, detection with Sulfo-tagged goat anti-human IgG
T1 construct: also called full length human ANGPTL3; hANGPTL3
T1 sequence: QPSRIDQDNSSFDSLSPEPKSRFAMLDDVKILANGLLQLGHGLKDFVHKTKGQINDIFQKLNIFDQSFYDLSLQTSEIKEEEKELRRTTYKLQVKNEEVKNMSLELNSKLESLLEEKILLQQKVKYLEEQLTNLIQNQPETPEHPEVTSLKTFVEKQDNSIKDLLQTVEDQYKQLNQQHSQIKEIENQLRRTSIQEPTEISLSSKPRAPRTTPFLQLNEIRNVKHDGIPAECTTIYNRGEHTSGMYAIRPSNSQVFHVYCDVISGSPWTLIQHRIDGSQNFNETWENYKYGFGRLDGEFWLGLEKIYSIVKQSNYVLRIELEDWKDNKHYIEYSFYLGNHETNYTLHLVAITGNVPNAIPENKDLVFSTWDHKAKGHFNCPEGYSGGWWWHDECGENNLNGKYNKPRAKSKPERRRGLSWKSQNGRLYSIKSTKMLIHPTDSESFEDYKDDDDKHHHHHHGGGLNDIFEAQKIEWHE
Procedure: Direct ELISA assays were conducted to characterize antibody binding specificity of selected antibodies of the invention. The assay was performed as follows. A 384-well streptavidin-coated Meso Scale Discovery (MSD) plate was blocked by incubating the plate with 50 μL Blocking Buffer (PBS, pH 7.4, 5% w/v bovine serum albumin) per well at 22° C. for 1 hour with constant shaking (600 rpm). The blocked MSD plate was then washed 3 times with Wash Buffer (PBS, pH 7.4 and 0.05% v/v Tween-20) using a plate washer (BioTek). Following washing, biotinylated human ANGPTL4 proteins diluted in Assay Buffer (PBS, pH 7.4 without CaCl₂ or MgCl₂, 0.5% w/v fatty acid-free bovine serum albumin and 0.02% v/v Tween-20) were immobilized on the surface by incubation at 1 nM concentration (15 μL per well) at 22° C. for one hour: full length human ANGPTL4 (hANGPTL4), human ANGPTL4 coiled-coil domain (hANGPTL4-CCD) and full length human ANGPTL3 (hANGPTL3). The plate was then washed 3 times as described earlier. Antibody diluted to 1 nM concentration in Assay Buffer was then applied to the MSD plate […], and the plate was incubated for 1 hour at 22° C. with constant shaking (600 rpm). Bound antibodies were detected by adding 15 μL per well of a 1:500 dilution of Sulfo-tagged goat anti-human IgG. The plate was then incubated for one hour with constant shaking (600 rpm). The plate was washed 3 times, and then 15 μL/well of 1×MSD read buffer T was added and the plate was developed using a Sector Imager 6000 (Meso Scale Discovery). The data were transferred to Microsoft Excel for analysis and plotted using GraphPad Prism v6. […] An ANGPTL3-specific reference antibody was used as a positive control for the ANGPTL3 binding assay (FIG. 2).

[2] = target: T2, ANGPTL4-derived peptide P39 (human); experiment: peptide array, immobilised linear 15-mers
T2 peptide: LQSQFGLLDHKHLDH
Procedure: (§1) The ability of selected antibodies of invention, namely MOR022765 and MOR022770, to bind to linear 15-amino-acid peptides derived from the N-terminal coiled coil domain of human ANGPTL4 was tested. The peptides were immobilized on a glass surface, and the ability of MOR022765 and MOR022770 to bind to the immobilized peptides was evaluated using experimental methods optimized for linear peptide epitope mapping at JPT Peptide Technologies (Berlin, Germany).

[3] = target: T3, ANGPTL4-derived peptide P28 (human); experiment: peptide array, immobilised linear 15-mers
T3 peptide: TQLKAQNSRIQQLFH
Procedure: as §1

[4] = target: T4, ANGPTL4-derived peptide P15 (human); experiment: peptide array, immobilised linear 15-mers
T4 construct: printed with S where human ANGPTL4 has C
T4 peptide: ALERRLSASGSASQG
Procedure: as §1

[5] = target: T5, ANGPTL4-derived peptide P38 (human); experiment: peptide array, immobilised linear 15-mers
T5 peptide: IQHLQSQFGLLDHKH
Procedure: as §1

[6] = target: T6, ANGPTL4-derived peptide P9 (human); experiment: peptide array, immobilised linear 15-mers
T6 peptide: QLGQGLREHAERTRS
Procedure: as §1

[7] = target: T7, ANGPTL4-derived peptide P23 (human); experiment: peptide array, immobilised linear 15-mers
T7 peptide: APESRVDPEVLHSLQ
Procedure: as §1

[8] = target: T8, ANGPTL4-derived peptide P32 (human); experiment: peptide array, immobilised linear 15-mers
T8 peptide: LFHKVAQQQRHLEKQ
Procedure: as §1

[9] = target: T9, ANGPTL4-derived peptide P21 (human); experiment: peptide array, immobilised linear 15-mers
T9 peptide: STDLPLAPESRVDPE
Procedure: as §1

[10] = target: T10, ANGPTL4-derived peptide P12 (human); experiment: peptide array, immobilised linear 15-mers
T10 peptide: AERTRSQLSALERRL
Procedure: as §1

[11] = target: T11, ANGPTL4-derived peptide P30 (human); experiment: peptide array, immobilised linear 15-mers
T11 peptide: NSRIQQLFHKVAQQQ
Procedure: as §1

[12] = target: T12, ANGPTL4-derived peptide P18 (human); experiment: peptide array, immobilised linear 15-mers
T12 construct: printed with S where human ANGPTL4 has C
T12 peptide: GSASQGTEGSTDLPL
Procedure: as §1

[13] = target: T13, ANGPTL4-derived peptide P43 (human); experiment: peptide array, immobilised linear 15-mers
T13 peptide: KHLDHEVAKPARRKR
Procedure: as §1

[14] = target: T14, ANGPTL4-derived peptide P5 (human); experiment: peptide array, immobilised linear 15-mers
T14 peptide: WDEMNVLAHGLLQLG
Procedure: as §1

[15] = target: T15, ANGPTL4-derived peptide P42 (human); experiment: peptide array, immobilised linear 15-mers
T15 peptide: HKHLDHEVAKPARRK
Procedure: as §1

[16] = target: T16, ANGPTL4-derived peptide P36 (human); experiment: peptide array, immobilised linear 15-mers
T16 peptide: EKQHLRIQHLQSQFG
Procedure: as §1

[17] = target: T17, ANGPTL4-derived peptide P25 (human); experiment: peptide array, immobilised linear 15-mers
T17 peptide: DPEVLHSLQTQLKAQ
Procedure: as §1

[18] = target: T18, ANGPTL4-derived peptide P40 (human); experiment: peptide array, immobilised linear 15-mers
T18 peptide: QFGLLDHKHLDHEVA
Procedure: as §1

[19] = target: T19, ANGPTL4-derived peptide P26 (human); experiment: peptide array, immobilised linear 15-mers
T19 peptide: VLHSLQTQLKAQNSR
Procedure: as §1

[20] = target: T20, ANGPTL4-derived peptide P8 (human); experiment: peptide array, immobilised linear 15-mers
T20 peptide: GLLQLGQGLREHAER
Procedure: as §1

[21] = target: T21, ANGPTL4-derived peptide P37 (human); experiment: peptide array, immobilised linear 15-mers
T21 peptide: HLRIQHLQSQFGLLD
Procedure: as §1

B1: MOR021792 (antibody, human IgG1, lambda, V domains shown)
VH: QVQLLESGGGLVQPGGSLRLSCAASGFTFSDYAMDWVRQAPGKGLEWVSKISYDGSYTYYADSVKGRFTISRDNSKNTLYLQMNSLRAEDTAVYYCARPSMSYYIIPAGFDVWGQGTLVTVSS
VL: DIELTQPPSVSVSPGQTASITCSGDALGVKRASWYQQKPGQAPVLVIYKDNNRPSGIPERFSGSNSGNTATLTISGTQAEDEADYYCSVRTWSMNLYVFGGGTKLTVLG
binding result [1]: no binding (tested: 1 nM)

B2: MOR021798 (antibody, human IgG1, lambda, V domains shown)
VH: QVQLLESGGGLVQPGGSLRLSCAASGFTFSDYALHWVRQAPGKGLEWVSRISYMGSSTYYADSVKGRFTISRDNSKNTLYLQMNSLRAEDTAVYYCAREHYYSSPMGGVAVDNWGQGTLVTVSS
VL: DIVLTQPPSVSGAPGQRVTISCSGSSSNIGYNTVSWYQQLPGTAPKLLIYSNNIRPSGVPDRFSGSKSGTSASLAITGLQAEDEADYYCSSWDFLIKSLVFGGGTKLTVLG
notes: human IgG1
binding result [1]: no binding (tested: 1 nM)

B3: MOR022765 (antibody, human IgG1, lambda, V domains shown)
VH: EVQLVQSGAEVKKPGESLKISCKGSGYSFSTYWISWVRQMPGKGLEWMGIIDPSSSDTRYSPSFQGQVTISADKSISTAYLQWSSLKASDTAMYYCARVYGYVYMDVWGQGTLVTVSS
VL: SYELTQPLSVSVALGQTARITCSGDNLGKKYAYWYQQKPGQAPVLVIYDKTKRPSGIPERFSGSNSGNTATLTISRAQAGDEADYYCASYDWYSSSYVFGGGTKLTVLG
notes: human IgG1
binding result [2]: no binding | binding result [3]: no binding | binding result [4]: no binding | binding result [5]: no binding | binding result [6]: no binding | binding result [7]: no binding | binding result [8]: no binding | binding result [9]: no binding | binding result [10]: no binding | binding result [11]: no binding | binding result [12]: no binding | binding result [13]: no binding | binding result [14]: no binding | binding result [15]: no binding | binding result [16]: no binding | binding result [17]: no binding | binding result [18]: no binding | binding result [19]: no binding | binding result [20]: no binding | binding result [21]: no binding
